Measured values published in patent EP4803150A2 (Lyvgen Biopharma Holdings Limited, dated 2026).
Residue numbers refer to the chain shown, from its start.

B1: Ly2846 (multi-specific antibody)
chain 1: QVQLVQSGAEVKKPGASVKVSCKASGYTFTSYVMHWVRQKPGQGLEWIGYINPYNEGTESTDKFKGRATMTSDKSTSTVYMELSSLRSEDTAVYYCASIYYGYEGTYFGVWGQGTLVTVSSASTKGPSVFPLAPSSKSTSGGTAALGCLVKDYFPEPVTVSWNSGALTSGVHTFPAVLQSSGLYSLSSVVTVPSSSLGTQTYICNVNHKPSNTKVDKKVEPKSCGGGGSGGGGSGGGGSGGGGSEVQLVESGGGLVQPGGSLRLSCAASGFTFSTYAMNWVRQAPGKGLEWVGRIRSKYNNYATYYADSVKGRFTISRDDSKNSLYLQMNSLKTEDTAVYYCVRHGNFGNSYVSWFAYWGQGTLVTVSSGGGGSDKTHTCPPCPAPELLGPSVFLFPPKPKDTLMISRTPEVTCVVVDVSHEDPEVKFNWYVDGVEVHNAKTKPREEQYNSTYRVVSVLTVLHQDWLNGKEYKCKVSNKALGAPIEKTISKAKGQPREPQVYTLPPSREEMTKNQVSLWCLVKGFYPSDIAVEWESNGQPENNYKTTPPVLDSDGSFFLYSKLTVDKSRWQQGNVFSCSVMHEALHNHYTQKSLSLSPGKGGGGSGGGGSGGGGSGGGGSQVQLVQSGAEVKKPGASVKVSCKASGYTFTDFWMSWVRQAPGQGLEWMGQIYPNTGTTHSNEKFKGRVTMTRDTSTSTVYMELSSLRSEDTAVYYCARSYHISTTPNWFAYWGQGTLVTVSS
chain 2: QVQLVQSGAEVKKPGASVKVSCKASGYTFTSYVMHWVRQKPGQGLEWIGYINPYNEGTESTDKFKGRATMTSDKSTSTVYMELSSLRSEDTAVYYCASIYYGYEGTYFGVWGQGTLVTVSSASTKGPSVFPLAPSSKSTSGGTAALGCLVKDYFPEPVTVSWNSGALTSGVHTFPAVLQSSGLYSLSSVVTVPSSSLGTQTYICNVNHKPSNTKVDKKVEPKSCGGGGSGGGGSGGGGSGGGGSQAVVTQEPSLTVSPGGTVTLTCRSSTGAVTTSNYANWVQQKPGQAPRGLIGGTNKRAPWTPARFSGSLLGGKAALTITGAQAEDEADYYCALWYSNLWVFGGGTKLTVLGGGGSDKTHTCPPCPAPELLGPSVFLFPPKPKDTLMISRTPEVTCVVVDVSHEDPEVKFNWYVDGVEVHNAKTKPREEQYNSTYRVVSVLTVLHQDWLNGKEYKCKVSNKALGAPIEKTISKAKGQPREPQVYTLPPSREEMTKNQVSLSCAVKGFYPSDIAVEWESNGQPENNYKTTPPVLDSDGSFFLVSKLTVDKSRWQQGNVFSCSVMHEALHNRFTQKSLSLSPGKGGGGSGGGGSGGGGSGGGGSDIQMTQSPSSLSASVGDRVTITCKASQNVYKKLEWYQQKPGKVPKVLIYHTNILQTGVPSRFSGSGSGTDYTLTISSLQPEDVATYYCYQWNSGPTFGGGTKVEIK
chain 3: EIVLTQSPATLSLSPGERATLSCRASSSVSYMHWYQQKPGQAPRPWIYATSNLASGIPARFSGSRSGTDYTLTISSLEPEDFAVYYCQQWSSNTLTFGGGTKVEIKRTVAAPSVFIFPPSDEQLKSGTASVVCLLNNFYPREAKVQWKVDNALQSGNSQESVTEQDSKDSTYSLSSTLTLSKADYEKHKVYACEVTHQGLSSPVTKSFNRGEC
notes: anti-B7H3/CD3/PD-L1
B2: Ly2802 (multi-specific antibody)
chain 1: QVQLQQSGAELVRPGSSVKISCKASGYAFSSYWMNWVKQRPGQGLEWIGQIWPGDGDTNYNGKFKGKATLTADESSSTAYMQLSSLASEDSAVYFCARRETTTVGRYYYAMDYWGQGTTVTVSSASVAAPSVFIFPPSDEQLKSGTASVVCLLNNFYPREAKVQWKVDNALQSGNSQESVTEQDSKDSTYSLSSTLTLSKADYEKHKVYACEVTHQGLSSPVTKSFNRGECGGGGSGGGGSGGGGSGGGGSEVQLVESGGGLVQPGGSLRLSCAASGFTFSTYAMNWVRQAPGKGLEWVGRIRSKYNNYATYYADSVKGRFTISRDDSKNSLYLQMNSLKTEDTAVYYCVRHGNFGNSYVSWFAYWGQGTLVTVSSGGGGSDKTHTCPPCPAPELLGPSVFLFPPKPKDTLMISRTPEVTCVVVDVSHEDPEVKFNWYVDGVEVHNAKTKPREEQYNSTYRVVSVLTVLHQDWLNGKEYKCKVSNKALGAPIEKTISKAKGQPREPQVYTLPPSREEMTKNQVSLWCLVKGFYPSDIAVEWESNGQPENNYKTTPPVLDSDGSFFLYSKLTVDKSRWQQGNVFSCSVMHEALHNHYTQKSLSLSPGKGGGGSGGGGSGGGGSGGGGSQVQLVQSGAEVKKPGASVKVSCKASGYTFAGFEMHWVRQAPGQGLEWMGAIDPKTGGTDYNQKFKDRVTMTRDTSISTAYMELSRLRSDDTAVYYCARDLGYFDVWGQGTLVTVSS
chain 2: QVQLQQPGAELVKPGASVKMSCKASGYTFTSYNMHWVKQTPGRGLEWIGAIYPGNGDTSYNQKFKGKATLTADKSSSTAYMQLSSLTSEDSAVYYCARSTYYGGDWYFNVWGAGTTVTVSAASTKGPSVFPLAPSSKSTSGGTAALGCLVKDYFPEPVTVSWNSGALTSGVHTFPAVLQSSGLYSLSSVVTVPSSSLGTQTYICNVNHKPSNTKVDKKVEPKSCGGGGSGGGGSGGGGSGGGGSQAVVTQEPSLTVSPGGTVTLTCRSSTGAVTTSNYANWVQQKPGQAPRGLIGGTNKRAPWTPARFSGSLLGGKAALTITGAQAEDEADYYCALWYSNLWVFGGGTKLTVLGGGGSDKTHTCPPCPAPELLGPSVFLFPPKPKDTLMISRTPEVTCVVVDVSHEDPEVKFNWYVDGVEVHNAKTKPREEQYNSTYRVVSVLTVLHQDWLNGKEYKCKVSNKALGAPIEKTISKAKGQPREPQVYTLPPSREEMTKNQVSLSCAVKGFYPSDIAVEWESNGQPENNYKTTPPVLDSDGSFFLVSKLTVDKSRWQQGNVFSCSVMHEALHNHYTQKSLSLSPGKGGGGSGGGGSGGGGSGGGGSDIQMTQSPSSLSASVGDRVTITCRASQDIRSNLNWYQQKPGGAVKLLIYYTSRLHSGVPSRFSGSGSGTDYTLTISSLQPEDFATYFCQQSEKLPRTFGGGTKVEIR
chain 3: DIQLTQSPASLAVSLGQRATISCKASQSVDYDGDSYLNWYQQIPGQPPKLLIYDASNLVSGIPPRFSGSGSGTDFTLNIHPVEKVDAATYHCQQSTEDPWTFGGGTKLEIKSSASTKGPSVFPLAPSSKSTSGGTAALGCLVKDYFPEPVTVSWNSGALTSGVHTFPAVLQSSGLYSLSSVVTVPSSSLGTQTYICNVNHKPSNTKVDKKVEPKSC
chain 4: QIVLSQSPAILSASPGEKVTMTCRASSSVSYIHWFQQKPGSSPKPWIYATSNLASGVPVRFSGSGSGTSYSLTISRVEAEDAATYYCQQWTSNPPTFGGGTKLEIKRTVAAPSVFIFPPSDEQLKSGTASVVCLLNNFYPREAKVQWKVDNALQSGNSQESVTEQDSKDSTYSLSSTLTLSKADYEKHKVYACEVTHQGLSSPVTKSFNRGEC
notes: CD19/CD20/CD3/CD137
B3: Ly2944 (multi-specific antibody)
chain 1: B2 chain 1
chain 2: B2 chain 2 with H572R, Y573F
chain 3: B2 chain 3
chain 4: B2 chain 4
notes: CD19/CD20/CD3/CD137
B4: Ly2453 (multi-specific antibody)
chain 1: not shown
chain 2: QVQLVQSGAEVKKPGASVKVSCKASGYTFTDFWMSWVRQAPGQGLEWMGQIYPNTGTTHSNEKFKGRVTMTRDTSTSTVYMELSSLRSEDTAVYYCARSYHISTTPNWFAYWGQGTLVTVSSASTKGPSVFPLAPSSKSTSGGTAALGCLVKDYFPEPVTVSWNSGALTSGVHTFPAVLQSSGLYSLSSVVTVPSSSLGTQTYICNVNHKPSNTKVDKKVEPKSCGGGGSGGGGSGGGGSGGGGSDIQMTQSPSSVSASVGDRVTITCRASQGIYSWLAWYQQKPGKAPNLLIYTASTLQSGVPSRFSGSGSGTDFTLTISSLQPEDFATYYCQQANIFPLTFGGGTKVEIKGGGGSDKTHTCPPCPAPEAAGPSVFLFPPKPKDTLMISRTPEVTCVVVDVSHEDPEVKFNWYVDGVEVHNAKTKPREEQYNSTYRVVSVLTVLHQDWLNGKEYKCKVSNKALPAPIEKTISKAKGQPREPQVYTLPPSREEMTKNQVSLSCAVKGFYPSDIAVEWESNGQPENNYKTTPPVLDSDGSFFLVSKLTVDKSRWQQGNVFSCSVMHEALHNRFTQKSLSLSPG
chain 3: DIQMTQSPSSLSASVGDRVTITCKASQNVYKKLEWYQQKPGKVPKVLIYHTNILQTGVPSRFSGSGSGTDYTLTISSLQPEDVATYYCYQWNSGPTFGGGTKVEIKRTVAAPSVFIFPPSDEQLKSGTASVVCLLNNFYPREAKVQWKVDNALQSGNSQESVTEQDSKDSTYSLSSTLTLSKADYEKHKVYACEVTHQGLSSPVTKSFNRGEC
notes: PD-L1/CD40
B5: Ly2454 (multi-specific antibody, human IgG1, kappa)
chain 1: not shown
chain 2: QVQLVQSGAEVKKPGASVKVSCKASGYTFTDFWMSWVRQAPGQGLEWMGQIYPNTGTTHSNEKFKGRVTMTRDTSTSTVYMELSSLRSEDTAVYYCARSYHISTTPNWFAYWGQGTLVTVSSASTKGPSVFPLAPSSKSTSGGTAALGCLVKDYFPEPVTVSWNSGALTSGVHTFPAVLQSSGLYSLSSVVTVPSSSLGTQTYICNVNHKPSNTKVDKKVEPKSCDKTHTCPPCPAPEAAGPSVFLFPPKPKDTLMISRTPEVTCVVVDVSHEDPEVKFNWYVDGVEVHNAKTKPREEQYNSTYRVVSVLTVLHQDWLNGKEYKCKVSNKALPAPIEKTISKAKGQPREPQVYTLPPSREEMTKNQVSLSCAVKGFYPSDIAVEWESNGQPENNYKTTPPVLDSDGSFFLVSKLTVDKSRWQQGNVFSCSVMHEALHNRFTQKSLSLSPGGGGGSGGGGSGGGGSGGGGSDIQMTQSPSSVSASVGDRVTITCRASQGIYSWLAWYQQKPGKAPNLLIYTASTLQSGVPSRFSGSGSGTDFTLTISSLQPEDFATYYCQQANIFPLTFGGGTKVEIK
chain 3: B4 chain 3
notes: PD-L1/CD40

Assays:
PD-L1 = target: T1, PD-L1 (human, UniProt Q9NZQ7 19-238, limits assumed); assay: FCM or ELISA, graded
T1 construct: On Raji cells expressing human PD-L1 in the reporter assay
T1 sequence (Q9NZQ7 19-238 limits assumed): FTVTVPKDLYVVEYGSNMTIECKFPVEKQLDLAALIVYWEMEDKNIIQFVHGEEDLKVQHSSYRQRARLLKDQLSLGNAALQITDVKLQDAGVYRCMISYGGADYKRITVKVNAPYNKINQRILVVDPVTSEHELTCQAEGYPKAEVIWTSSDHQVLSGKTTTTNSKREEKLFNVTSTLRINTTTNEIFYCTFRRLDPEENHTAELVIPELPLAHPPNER

CD137 = target: T2, CD137 (human, UniProt Q07011 24-186); assay: FCM or ELISA, graded
T2 construct: Whole on GS-H2-huCD137 reporter cells in the reporter assays; also called 4-1BB

CD19 = target: T3, CD19 (human, UniProt P15391 20-556); assay: CHO cells overexpressing CD19, graded
T3 construct: whole, on cells
T3 sequence (looked up): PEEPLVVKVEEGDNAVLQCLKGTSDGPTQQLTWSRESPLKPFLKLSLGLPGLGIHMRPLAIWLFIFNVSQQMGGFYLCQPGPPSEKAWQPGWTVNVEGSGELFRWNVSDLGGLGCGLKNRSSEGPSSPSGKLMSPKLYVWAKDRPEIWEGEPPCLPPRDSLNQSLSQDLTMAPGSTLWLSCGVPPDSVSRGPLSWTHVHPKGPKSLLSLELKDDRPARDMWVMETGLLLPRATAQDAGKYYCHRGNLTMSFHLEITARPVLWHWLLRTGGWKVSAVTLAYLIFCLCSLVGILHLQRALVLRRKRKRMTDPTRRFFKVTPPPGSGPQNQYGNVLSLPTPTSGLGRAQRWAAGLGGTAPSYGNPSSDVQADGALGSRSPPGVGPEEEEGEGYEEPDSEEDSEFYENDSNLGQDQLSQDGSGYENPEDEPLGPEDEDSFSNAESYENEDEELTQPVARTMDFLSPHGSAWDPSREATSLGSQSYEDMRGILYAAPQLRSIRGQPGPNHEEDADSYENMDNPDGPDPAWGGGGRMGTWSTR

CD40 = target: T4, CD40 (human, UniProt P25942 21-193); assay: FCM or ELISA, graded
T4 construct: Whole on GS-H2-huCD40 reporter cells in the reporter assays
T4 sequence (P25942 21-193 limits assumed): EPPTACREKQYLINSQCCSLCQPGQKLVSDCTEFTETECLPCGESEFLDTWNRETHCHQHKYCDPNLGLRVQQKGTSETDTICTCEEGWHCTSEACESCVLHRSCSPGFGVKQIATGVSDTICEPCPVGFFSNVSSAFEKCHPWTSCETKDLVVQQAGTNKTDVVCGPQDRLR

Binder	binding result (PD-L1)	binding result (CD137)	binding result (CD19)	binding result (CD40)
B1	binds	–	–	–
B2	–	binds	binds	–
B3	–	binds	binds	–
B4	–	–	–	binds
B5	–	–	–	binds
